These results are taken from patent publication US7105166.

Experiment [1] addresses B7 antigen (B7-1, CD80) expressed on cells (human) (UniProt P33681). Kind of experiment: enzyme immunoassay on fixed B7-1+ CHO cells.
Experiment [2] has the same target. Kind of experiment: B7-1+ CHO cell enzyme immunoassay; binding activity relative to CTLA4Ig, from the concentrations giving the same A450.

Sequence of B7 antigen (B7-1, CD80) expressed on cells (human) (P33681 35-288): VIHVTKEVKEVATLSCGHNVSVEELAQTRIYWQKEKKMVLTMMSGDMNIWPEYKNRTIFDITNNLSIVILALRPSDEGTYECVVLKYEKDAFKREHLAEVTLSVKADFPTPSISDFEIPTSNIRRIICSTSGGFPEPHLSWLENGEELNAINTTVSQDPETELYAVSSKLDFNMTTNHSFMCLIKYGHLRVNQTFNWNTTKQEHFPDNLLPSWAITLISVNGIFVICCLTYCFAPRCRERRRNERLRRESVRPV

B1: CTLA4/CD28Ig hybrid fusion protein HS8 (Fc fusion, not shown: a dimerising Fc or GST)
chain: NKILVKQSPMLVAYDNAYNLSCKYASPGKATEFRASLHKGLDSAVEVCVVYGNYSQQLQVYSKTGFNCDGKLGNESVTFYLQNLYVNQTDIYFCKIELMYPPPYYLGIGNGTQIHVKGKHLCPS
The molecule B1 had a % of wild type binding in experiment [1] of 60%. The molecule further showed a % B7 binding activity in experiment [2] of 56%.

B2: CTLA4/CD28Ig hybrid fusion protein HS4-B (Fc fusion, not shown: a dimerising Fc or GST)
chain: NKILVKQSPMLVAYDNAYNLSCKYSYNLFSREFRASLHKGLDSAVEVCVVYGNYSQQLQVYSKTGFNCDGKLGNESVTFYLQNLYVNQTDIYFCKIEVMYPPPYLDNEKSNGTIIYVIDPEPCPDSD
The molecule B2 registered a % B7 binding activity in experiment [2] of 5%.

B3: CTLA4/CD28Ig hybrid fusion protein HS9 (Fc fusion, not shown: a dimerising Fc or GST)
chain: NKILVKQSPMLVAYDNAYNLSCKYASPGKATEFRASLHKGLDSAVEVCVVYGNYSQQLQVYSKTGFNCDGKLGNESVTFYLQNLYVNQTDIYFCKIEVMYPPPYLDNEKSNGTIIYVIDPEPCPDSD
In experiment [2], B3 had a % B7 binding activity of 5%.

B4: CTLA4/CD28Ig hybrid fusion protein HS7 (Fc fusion, not shown: a dimerising Fc or GST)
chain: NKILVKQSPMLVAYDNAYNLSCKYASPGKATEFRASLHKGLDSAVEVCVVYGNYSQQLQVYSKTGFNCDGKLGNESVTFYLQNLYVNQTDIYFCKIELMYPPPYYLGIGNGTQIYVIDPEPCPDSD
On to B4, for which the % binding activity relative to CTLA4Ig in experiment [1] amounted to 44%. The molecule also had a % B7 binding activity in experiment [2] of 44%.
